# Source: paper doi:10.1101/2024.10.13.618061 (bioRxiv, 2024)
# B1: wheat Sr35 (Triticum monococcum; TmSr35) [change]/[change], untagged (receptor)
# chain: MEIAMGAIGSELPKEGELLIGEITLEKKVRKGIESLITELKLMQAVLSKVSKVPADQLDEGVKIWAGNVKELSYQMEDIVDAFMVRVGDGGESTNPKNRVKKILKKVKKLFKNGKDLHRISAALEEVVLQAKQLAELRQRYEQEMRDTSANTSVDPRMMALYTDVTELVGIEETRDKLINMLTEGDDWSKHPLKTISIVGFGGLGKTTLAKAAYDKIKVQFDCGAFVSVSRNPEMKKVLKDILYGLDKVKYENIHNAARDEKYLIDDIIEFLNDKRYLIVIDDIWNEKAWELIKCAFSKKSPGSRLITTTRNVSVSEACCSSEDDIYRMEPLSNDVSRTLFCKRIFSQEEGCPQELLKVSEEILKKCGGVPLAIITIASLLANKGHIKAKDEWYALLSSIGHGLTKNRSLEQMKKILLFSYYDLPSYLKPCLLYLSIFPEDREIRRARLIWRWISEGFVYSEKQDISLYELGDSYFNELVNRSMIQPIGIDDEGKVKACRVHDMVLDLICSLSSEENFVTILDDPRRKMPNSESKVRRLSIQNSKIDVDTTRMEHMRSVTVFSDNVVGKVLDISRFKVLRVLDLEGCHVSDVGYVGNLLHLRYLGLKGTHVKDLPMEIGKLQFLLTLDLRGTKIEVLPWSVVQLRRLMCLYVDYGMKLPSGIGNLTFLEVLDDLGLSDVDLDFVKELGRLTKLRVLRLDFHGFDQSMGKALEESISNMYKLDSLDVFVNRGLINCLSEHWVPPPRLCRLAFPSKRSWFKTLPSWINPSSLPLLSYLDITLFEVRSEDIQLLGTLPALVYLEIWNYSVFEEAHEVEAPVLSSGAALFPCATECRFIGIGAVPSMFPQGAAPRLKRLWFTFPAKWISSENIGLGMRHLPSLQRVVVDVISEGASREEADEAEAALRAAAEDHPNRPILDIW
# Biological target: the molecule itself
# Experiment: negative-staining EM
protein,measurement,value
B1,stoichiometry N,5
